In US10189900B2, “Method for screening for autophagy activator or inhibitor” (KOREA FOOD RESEARCH INSTITUTE, priority 2014, dated 2019):

Columns and labels:
Ser30 of Beclin 1 = test: Beclin 1 Ser30 phosphorylation after compound treatment (immunoprecipitation of endogenous Beclin 1, phospho-Ser30 antibody); assay type: cell-based; conditions: HEK293T cells treated for 0, 15, 30, 60 and 120 min; endogenous Beclin 1 isolated by immunoprecipitation; rabbit phospho-Ser30 antibody
Experimental: For co-immunoprecipitation, cell extracts were prepared in a buffer containing 40 mM HEPES, pH 7.4, 120 mM NaCl, 1 mM EDTA, 50 mM NaF, 1.5 mM Na3VO4, 10 mM Mb-glycerophosphate, 1% triton X-100, and protease inhibitor (Roche). Immunoprecipitated proteins were washed four times with a lysis buffer, and loaded onto 8% Tris-glycine gels. The resultant proteins were transferred onto polyvinylidene difluoride (PVDF) membranes (Bio-Rad, USA), and detected with western blotting detection reagents (Perkin Elmer, USA).
HEK293T cells were treated with rapamycin for predetermined periods of time (0, 15, 30, 60, and 120 min). Endogenous Beclin 1 was isolated by immunoprecipitation. The phosphorylation of Ser30 was analyzed using rabbit antibodies developed in the present invention. It was verified that Ser30 of Beclin 1 was phosphorylated by rapamycin (FIG. 5). Rapamycin increases the activity of ULK1.
HEK293T cells were treated with torin for predetermined periods of time (0, 15, 30, 60, and 120 min). Endogenous Beclin 1 was isolated by immunoprecipitation. The phosphorylation of Ser30 was analyzed using rabbit antibodies developed in the present invention. It was verified that Ser30 of Beclin 1 was phosphorylated by torin (FIG. 6).

[1] = biological target: myc-tagged Beclin 1, Q14457
Sequence of myc-tagged Beclin 1, Q14457 (Q14457 whole entry, looked up): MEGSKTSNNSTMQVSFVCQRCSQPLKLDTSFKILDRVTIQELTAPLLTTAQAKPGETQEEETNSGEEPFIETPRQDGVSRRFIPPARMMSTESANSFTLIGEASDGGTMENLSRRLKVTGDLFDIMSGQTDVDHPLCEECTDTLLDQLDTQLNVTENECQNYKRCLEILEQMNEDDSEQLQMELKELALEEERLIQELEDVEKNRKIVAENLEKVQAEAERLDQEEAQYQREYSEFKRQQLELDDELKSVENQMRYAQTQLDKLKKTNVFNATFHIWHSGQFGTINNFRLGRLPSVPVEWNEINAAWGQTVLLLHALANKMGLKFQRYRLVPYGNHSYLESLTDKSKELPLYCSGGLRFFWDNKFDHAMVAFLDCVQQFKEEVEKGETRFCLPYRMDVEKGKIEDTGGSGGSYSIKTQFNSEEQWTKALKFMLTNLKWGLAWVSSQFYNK

[2] = biological target: Recombinant Beclin 1 isolated from E. coli, Q14457
Sequence of Recombinant Beclin 1 isolated from E. coli, Q14457 (Q14457 whole entry, looked up): as above

Molecule: torin
- phosphorylation of Ser30 of Beclin 1 (Ser30 of Beclin 1): phosphorylated

B1: HA-tagged ULK1 wild type (protein)
chain: MEPGRGGTETVGKFEFSRKDLIGHGAFAVVFKGRHREKHDLEVAVKCINKKNLAKSQTLLGKEIKILKELKHENIVALYDFQEMANSVYLVMEYCNGGDLADYLHAMRTLSEDTIRLFLQQIAGAMRLLHSKGIIHRDLKPQNILLSNPAGRRANPNSIRVKIADFGFARYLQSNMMAATLCGSPMYMAPEVIMSQHYDGKADLWSIGTIVYQCLTGKAPFQASSPQDLRLFYEKNKTLVPTIPRETSAPLRQLLLALLQRNHKDRMDFDEFFHHPFLDASPSVRKSPPVPVPSYPSSGSGSSSSSSSTSHLASPPSLGEMQQLQKTLASPADTAGFLHSSRDSGGSKDSSCDTDDFVMVPAQFPGDLVAEAPSAKPPPDSLMCSGSSLVASAGLESHGRTPSPSPPCSSSPSPSGRAGPFSSSRCGASVPIPVPTQVQNYQRIERNLQSPTQFQTPRSSAIRRSGSTSPLGFARASPSPPAHAEHGGVLARKMSLGGGRPYTPSPQVGTIPERPGWSGTPSPQGAEMRGGRSPRPGSSAPEHSPRTSGLGCRLHSAPNLSDLHVVRPKLPKPPTDPLGAVFSPPQASPPQPSHGLQSCRNLRGSPKLPDFLQRNPLPPILGSPTKAVPSFDFPKTPSSQNLLALLARQGVVMTPPRNRTLPDLSEVGPFHGQPLGPGLRPGEDPKGPFGRSFSTSRLTDLLLKAAFGTQAPDPGSTESLQEKPMEIAPSAGFGGSLHPGARAGGTSSPSPVVFTVGSPPSGSTPPQGPRTRMFSAGPTGSASSSARHLVPGPCSEAPAPELPAPGHGCSFADPITANLEGAVTFEAPDLPEETLMEQEHTEILRGLRFTLLFVQHVLEIAALKGSASEAAGGPEYQLQESVVADQISLLSREWGFAEQLVLYLKVAELLSSGLQSAIDQIRAGKLCLSSTVKQVVRRLNELYKASVVSCQGLSLRLQRFFLDKQRLLDRIHSITAERLIFSHAVQMVQSAALDEMFQHREGCVPRYHKALLLLEGLQHMLSDQADIENVTKCKLCIERRLSALLTGICA
- band shift on SDS-PAGE (western blot) [1]: Beclin 1 co-expressed together with ULK1 showed band shift

B2: HA-tagged ULK1 M92A KD (kinase dead) mutant (protein)
chain: MEPGRGGTETVGKFEFSRKDLIGHGAFAVVFKGRHREKHDLEVAVKCINKKNLAKSQTLLGKEIKILKELKHENIVALYDFQEMANSVYLVAEYCNGGDLADYLHAMRTLSEDTIRLFLQQIAGAMRLLHSKGIIHRDLKPQNILLSNPAGRRANPNSIRVKIADFGFARYLQSNMMAATLCGSPMYMAPEVIMSQHYDGKADLWSIGTIVYQCLTGKAPFQASSPQDLRLFYEKNKTLVPTIPRETSAPLRQLLLALLQRNHKDRMDFDEFFHHPFLDASPSVRKSPPVPVPSYPSSGSGSSSSSSSTSHLASPPSLGEMQQLQKTLASPADTAGFLHSSRDSGGSKDSSCDTDDFVMVPAQFPGDLVAEAPSAKPPPDSLMCSGSSLVASAGLESHGRTPSPSPPCSSSPSPSGRAGPFSSSRCGASVPIPVPTQVQNYQRIERNLQSPTQFQTPRSSAIRRSGSTSPLGFARASPSPPAHAEHGGVLARKMSLGGGRPYTPSPQVGTIPERPGWSGTPSPQGAEMRGGRSPRPGSSAPEHSPRTSGLGCRLHSAPNLSDLHVVRPKLPKPPTDPLGAVFSPPQASPPQPSHGLQSCRNLRGSPKLPDFLQRNPLPPILGSPTKAVPSFDFPKTPSSQNLLALLARQGVVMTPPRNRTLPDLSEVGPFHGQPLGPGLRPGEDPKGPFGRSFSTSRLTDLLLKAAFGTQAPDPGSTESLQEKPMEIAPSAGFGGSLHPGARAGGTSSPSPVVFTVGSPPSGSTPPQGPRTRMFSAGPTGSASSSARHLVPGPCSEAPAPELPAPGHGCSFADPITANLEGAVTFEAPDLPEETLMEQEHTEILRGLRFTLLFVQHVLEIAALKGSASEAAGGPEYQLQESVVADQISLLSREWGFAEQLVLYLKVAELLSSGLQSAIDQIRAGKLCLSSTVKQVVRRLNELYKASVVSCQGLSLRLQRFFLDKQRLLDRIHSITAERLIFSHAVQMVQSAALDEMFQHREGCVPRYHKALLLLEGLQHMLSDQADIENVTKCKLCIERRLSALLTGICA
- band shift on SDS-PAGE (western blot) [1]: Beclin 1 co-expressed together with ULK1 M92A KD showed no band shift

B3: myc-tagged ULK1 KD (M92) mutant (protein)
chain: MEPGRGGTETVGKFEFSRKDLIGHGAFAVVFKGRHREKHDLEVAVKCINKKNLAKSQTLLGKEIKILKELKHENIVALYDFQEMANSVYLVAEYCNGGDLADYLHAMRTLSEDTIRLFLQQIAGAMRLLHSKGIIHRDLKPQNILLSNPAGRRANPNSIRVKIADFGFARYLQSNMMAATLCGSPMYMAPEVIMSQHYDGKADLWSIGTIVYQCLTGKAPFQASSPQDLRLFYEKNKTLVPTIPRETSAPLRQLLLALLQRNHKDRMDFDEFFHHPFLDASPSVRKSPPVPVPSYPSSGSGSSSSSSSTSHLASPPSLGEMQQLQKTLASPADTAGFLHSSRDSGGSKDSSCDTDDFVMVPAQFPGDLVAEAPSAKPPPDSLMCSGSSLVASAGLESHGRTPSPSPPCSSSPSPSGRAGPFSSSRCGASVPIPVPTQVQNYQRIERNLQSPTQFQTPRSSAIRRSGSTSPLGFARASPSPPAHAEHGGVLARKMSLGGGRPYTPSPQVGTIPERPGWSGTPSPQGAEMRGGRSPRPGSSAPEHSPRTSGLGCRLHSAPNLSDLHVVRPKLPKPPTDPLGAVFSPPQASPPQPSHGLQSCRNLRGSPKLPDFLQRNPLPPILGSPTKAVPSFDFPKTPSSQNLLALLARQGVVMTPPRNRTLPDLSEVGPFHGQPLGPGLRPGEDPKGPFGRSFSTSRLTDLLLKAAFGTQAPDPGSTESLQEKPMEIAPSAGFGGSLHPGARAGGTSSPSPVVFTVGSPPSGSTPPQGPRTRMFSAGPTGSASSSARHLVPGPCSEAPAPELPAPGHGCSFADPITANLEGAVTFEAPDLPEETLMEQEHTEILRGLRFTLLFVQHVLEIAALKGSASEAAGGPEYQLQESVVADQISLLSREWGFAEQLVLYLKVAELLSSGLQSAIDQIRAGKLCLSSTVKQVVRRLNELYKASVVSCQGLSLRLQRFFLDKQRLLDRIHSITAERLIFSHAVQMVQSAALDEMFQHREGCVPRYHKALLLLEGLQHMLSDQADIENVTKCKLCIERRLSALLTGICA
- incorporation of 32P into Beclin 1 (in vitro kinase reaction, autoradiogram) [2]: KD mutant-added Beclin 1 was not phosphorylated

B4: myc-tagged ULK1 wild type (protein)
chain: MEPGRGGTETVGKFEFSRKDLIGHGAFAVVFKGRHREKHDLEVAVKCINKKNLAKSQTLLGKEIKILKELKHENIVALYDFQEMANSVYLVMEYCNGGDLADYLHAMRTLSEDTIRLFLQQIAGAMRLLHSKGIIHRDLKPQNILLSNPAGRRANPNSIRVKIADFGFARYLQSNMMAATLCGSPMYMAPEVIMSQHYDGKADLWSIGTIVYQCLTGKAPFQASSPQDLRLFYEKNKTLVPTIPRETSAPLRQLLLALLQRNHKDRMDFDEFFHHPFLDASPSVRKSPPVPVPSYPSSGSGSSSSSSSTSHLASPPSLGEMQQLQKTLASPADTAGFLHSSRDSGGSKDSSCDTDDFVMVPAQFPGDLVAEAPSAKPPPDSLMCSGSSLVASAGLESHGRTPSPSPPCSSSPSPSGRAGPFSSSRCGASVPIPVPTQVQNYQRIERNLQSPTQFQTPRSSAIRRSGSTSPLGFARASPSPPAHAEHGGVLARKMSLGGGRPYTPSPQVGTIPERPGWSGTPSPQGAEMRGGRSPRPGSSAPEHSPRTSGLGCRLHSAPNLSDLHVVRPKLPKPPTDPLGAVFSPPQASPPQPSHGLQSCRNLRGSPKLPDFLQRNPLPPILGSPTKAVPSFDFPKTPSSQNLLALLARQGVVMTPPRNRTLPDLSEVGPFHGQPLGPGLRPGEDPKGPFGRSFSTSRLTDLLLKAAFGTQAPDPGSTESLQEKPMEIAPSAGFGGSLHPGARAGGTSSPSPVVFTVGSPPSGSTPPQGPRTRMFSAGPTGSASSSARHLVPGPCSEAPAPELPAPGHGCSFADPITANLEGAVTFEAPDLPEETLMEQEHTEILRGLRFTLLFVQHVLEIAALKGSASEAAGGPEYQLQESVVADQISLLSREWGFAEQLVLYLKVAELLSSGLQSAIDQIRAGKLCLSSTVKQVVRRLNELYKASVVSCQGLSLRLQRFFLDKQRLLDRIHSITAERLIFSHAVQMVQSAALDEMFQHREGCVPRYHKALLLLEGLQHMLSDQADIENVTKCKLCIERRLSALLTGICA
- incorporation of 32P into Beclin 1 (in vitro kinase reaction, autoradiogram) [2]: The ULK1 wild type phosphorylates Beclin 1
